Measurements published in the Immune Epitope Database (IEDB).

What was measured:
Conditions in all cases: source organism: Influenza A virus
HLA-A*68:02 [1] = assay: IEDB peptide-MHC binding, purified MHC/competitive/fluorescence; ≥ and ≤ were set here for values at or beyond the usual limits of such assays
HLA-A*02:06 [2] = assay: IEDB peptide-MHC binding, purified MHC/competitive/radioactivity; ≥ and ≤ were set here for values at or beyond the usual limits of such assays
HLA-A*02:03 [3] = assay: as above
HLA-A*02:02 [4] = assay: as above
HLA-A*31:01 [5] = assay: as above
HLA-A*03:01 [6] = assay: as above
HLA-A*68:01 [7] = assay: as above
HLA-A*11:01 [8] = assay: as above
HLA-A*33:01 [9] = assay: as above
HLA-B*40:01 [10] = assay: IEDB peptide-MHC binding, purified MHC/competitive/fluorescence; ≥ and ≤ were set here for values at or beyond the usual limits of such assays
HLA-B*18:01 [11] = assay: as above
HLA-B*44:03 [12] = assay: as above
HLA-B*44:02 [13] = assay: as above
HLA-B*45:01 [14] = assay: IEDB peptide-MHC binding, purified MHC/competitive/radioactivity; ≥ and ≤ were set here for values at or beyond the usual limits of such assays
HLA-B*40:02 [15] = assay: as above
HLA-A*31:01 [16] = assay: IEDB peptide-MHC binding, purified MHC/competitive/fluorescence; ≥ and ≤ were set here for values at or beyond the usual limits of such assays
HLA-A*68:01 [17] = assay: as above
HLA-A*02:06 [18] = assay: as above
HLA-A*26:01 [19] = assay: as above
HLA-A*30:02 [20] = assay: as above
HLA-A*01:01 [21] = assay: IEDB peptide-MHC binding, purified MHC/competitive/radioactivity; ≥ and ≤ were set here for values at or beyond the usual limits of such assays
HLA-A*29:02 [22] = assay: as above
HLA-A*02:02 [23] = assay: IEDB peptide-MHC binding, purified MHC/competitive/fluorescence; ≥ and ≤ were set here for values at or beyond the usual limits of such assays
HLA-A*02:01 [24] = assay: IEDB peptide-MHC binding, purified MHC/competitive/radioactivity; ≥ and ≤ were set here for values at or beyond the usual limits of such assays
HLA-B*40:01 [25] = assay: as above
HLA-B*44:03 [26] = assay: as above
HLA-B*44:02 [27] = assay: as above
HLA-B*40:02 [28] = assay: IEDB peptide-MHC binding, purified MHC/competitive/fluorescence; ≥ and ≤ were set here for values at or beyond the usual limits of such assays
HLA-B*45:01 [29] = assay: as above
HLA-B*18:01 [30] = assay: IEDB peptide-MHC binding, purified MHC/competitive/radioactivity; ≥ and ≤ were set here for values at or beyond the usual limits of such assays
HLA-A*02:03 [31] = assay: IEDB peptide-MHC binding, purified MHC/competitive/fluorescence; ≥ and ≤ were set here for values at or beyond the usual limits of such assays
HLA-A*33:01 [32] = assay: as above
HLA-A*24:02 = assay: IEDB peptide-MHC binding, purified MHC/competitive/radioactivity; ≥ and ≤ were set here for values at or beyond the usual limits of such assays
HLA-A*23:01 = assay: as above
HLA-A*29:02 [33] = assay: IEDB peptide-MHC binding, purified MHC/competitive/fluorescence; ≥ and ≤ were set here for values at or beyond the usual limits of such assays
HLA-A*02:01 [34] = assay: as above
HLA-A*68:02 [35] = assay: IEDB peptide-MHC binding, purified MHC/competitive/radioactivity; ≥ and ≤ were set here for values at or beyond the usual limits of such assays
HLA-A*01:01 [36] = assay: IEDB peptide-MHC binding, purified MHC/competitive/fluorescence; ≥ and ≤ were set here for values at or beyond the usual limits of such assays
HLA-A*26:01 [37] = assay: IEDB peptide-MHC binding, purified MHC/competitive/radioactivity; ≥ and ≤ were set here for values at or beyond the usual limits of such assays
HLA-A*30:02 [38] = assay: as above
HLA-A*03:01 [39] = assay: IEDB peptide-MHC binding, purified MHC/competitive/fluorescence; ≥ and ≤ were set here for values at or beyond the usual limits of such assays
HLA-A*11:01 [40] = assay: as above

QIAILVTTV showed an IC50 (HLA-A*68:02 [1]) of 2220 nM, an IC50 (HLA-A*02:06 [2]) of 691 nM and an IC50 (HLA-A*02:03 [3]) of 73 nM. For the same sequence, the IC50 (HLA-A*02:02 [4]) was 150 nM.

With SFSFGGFTFK the IC50 (HLA-A*31:01 [5]) was 82 nM, the IC50 (HLA-A*03:01 [6]) was 188 nM and the IC50 (HLA-A*68:01 [7]) was 427 nM. The IC50 (HLA-A*11:01 [8]) was 160 nM and the IC50 (HLA-A*33:01 [9]) was 168 nM.

Work on AEIMKICST yielded an IC50 (HLA-B*40:01 [10]) of 34200 nM, an IC50 (HLA-B*18:01 [11]) of 28200 nM and an IC50 (HLA-B*44:03 [12]) of 11700 nM. For the same sequence, the IC50 (HLA-B*44:02 [13]) was 5120 nM, the IC50 (HLA-B*45:01 [14]) was 139 nM and the IC50 (HLA-B*40:02 [15]) was 13 nM.

TLARSICEK was tested, and the IC50 (HLA-A*31:01 [16]) was 8120 nM, the IC50 (HLA-A*68:01 [17]) was 1460 nM and the IC50 (HLA-A*03:01 [6]) was 127 nM. The IC50 (HLA-A*11:01 [8]) was 276 nM.

For LLFLKVPA, the IC50 (HLA-A*02:06 [18]) was 13300 nM, the IC50 (HLA-A*68:02 [1]) was 23000 nM and the IC50 (HLA-A*02:03 [3]) was 279 nM. For the same sequence, the IC50 (HLA-A*02:02 [4]) was 133 nM.

For ALASCMGLIY, the IC50 (HLA-A*26:01 [19]) was 2180 nM, the IC50 (HLA-A*30:02 [20]) was 2520 nM and the IC50 (HLA-A*01:01 [21]) was 998 nM. The IC50 (HLA-A*29:02 [22]) was 12 nM.

ALQLLLEV showed an IC50 (HLA-A*02:06 [18]) of 2200 nM, an IC50 (HLA-A*02:02 [23]) of 1440 nM and an IC50 (HLA-A*02:01 [24]) of 662 nM. It also gave an IC50 (HLA-A*02:03 [3]) of 256 nM.

FNMLSTVLGV gave an IC50 (HLA-A*02:01 [24]) of 15 nM.

KTRPILSPLTK showed an IC50 (HLA-A*31:01 [5]) of 70 nM and an IC50 (HLA-A*03:01 [6]) of 96 nM.

AESRKLLLI was tested, and the IC50 (HLA-B*18:01 [11]) was 33100 nM, the IC50 (HLA-B*40:01 [25]) was 535 nM and the IC50 (HLA-B*45:01 [14]) was 167 nM. The IC50 (HLA-B*44:03 [26]) was 179 nM, the IC50 (HLA-B*40:02 [15]) was 220 nM and the IC50 (HLA-B*44:02 [27]) was 55 nM.

CELTDSSWI gave an IC50 (HLA-B*18:01 [11]) of 56800 nM, an IC50 (HLA-B*40:02 [28]) of 1410 nM and an IC50 (HLA-B*40:01 [25]) of 888 nM. It also gave an IC50 (HLA-B*45:01 [14]) of 139 nM, an IC50 (HLA-B*44:03 [26]) of 163 nM and an IC50 (HLA-B*44:02 [27]) of 35 nM.

In the case of YERMCNILKG, the IC50 (HLA-B*40:01 [10]) is reported as 2220 nM, the IC50 (HLA-B*45:01 [29]) is reported as 19800 nM and the IC50 (HLA-B*44:03 [12]) is reported as 3000 nM. It also gave an IC50 (HLA-B*44:02 [13]) of 1860 nM, an IC50 (HLA-B*18:01 [30]) of 711 nM and an IC50 (HLA-B*40:02 [15]) of 143 nM.

ILGFVFTL was tested, and the IC50 (HLA-A*02:06 [2]) was 319 nM, the IC50 (HLA-A*02:03 [3]) was 11 nM and the IC50 (HLA-A*02:02 [4]) was 2.6 nM.

In the case of QLMWALGENMA, the IC50 (HLA-A*02:06 [18]) is reported as 24400 nM, the IC50 (HLA-A*68:02 [1]) is reported as 2270 nM and the IC50 (HLA-A*02:03 [31]) is reported as 1350 nM. It also gave an IC50 (HLA-A*02:02 [4]) of 357 nM.

For RMVLASTTAK, the IC50 (HLA-A*33:01 [32]) was 5880 nM.

CEKLEQSGL was tested, and the IC50 (HLA-B*40:01 [10]) was 1490 nM, the IC50 (HLA-B*18:01 [11]) was 43100 nM and the IC50 (HLA-B*44:03 [12]) was 2960 nM. For the same sequence, the IC50 (HLA-B*45:01 [14]) was 359 nM, the IC50 (HLA-B*40:02 [15]) was 164 nM and the IC50 (HLA-B*44:02 [27]) was 154 nM.

LYRKLKREITF was tested, and the IC50 (HLA-A*24:02) was 206 nM and the IC50 (HLA-A*23:01) was 195 nM.

With VSDGGPNLY the IC50 (HLA-A*26:01 [19]) was 25700 nM, the IC50 (HLA-A*29:02 [33]) was 2120 nM and the IC50 (HLA-A*30:02 [20]) was 2210 nM.

FSMELPSFGV showed an IC50 (HLA-A*02:01 [24]) of 9.5 nM.

Work on SWPDGAELPF yielded an IC50 (HLA-A*24:02) of 778 nM and an IC50 (HLA-A*23:01) of 469 nM.

AEKPKFLPDLY was tested, and the IC50 (HLA-B*40:01 [10]) was 10900 nM, the IC50 (HLA-B*45:01 [29]) was 2930 nM and the IC50 (HLA-B*18:01 [11]) was 34700 nM. For the same sequence, the IC50 (HLA-B*40:02 [28]) was 4780 nM, the IC50 (HLA-B*44:03 [26]) was 1440 nM and the IC50 (HLA-B*44:02 [27]) was 412 nM.

Work on ILSPLTKGIL yielded an IC50 (HLA-A*02:06 [18]) of 26000 nM, an IC50 (HLA-A*02:01 [34]) of 10500 nM and an IC50 (HLA-A*68:02 [1]) of 13300 nM. The IC50 (HLA-A*02:03 [3]) was 129 nM and the IC50 (HLA-A*02:02 [4]) was 159 nM.

ITFMQALQLL showed an IC50 (HLA-A*02:06 [18]) of 8180 nM, an IC50 (HLA-A*68:02 [35]) of 759 nM and an IC50 (HLA-A*02:03 [3]) of 856 nM. It also gave an IC50 (HLA-A*02:02 [4]) of 125 nM.

FVEALARSI gave an IC50 (HLA-A*02:06 [2]) of 668 nM, an IC50 (HLA-A*68:02 [35]) of 984 nM and an IC50 (HLA-A*02:03 [3]) of 457 nM. For the same sequence, the IC50 (HLA-A*02:02 [4]) was 35 nM.

Sequence TFEFTSFFY has an IC50 (HLA-A*01:01 [36]) of 12000 nM, an IC50 (HLA-A*26:01 [37]) of 399 nM and an IC50 (HLA-A*29:02 [22]) of 0.1 nM. For the same sequence, the IC50 (HLA-A*30:02 [38]) was 422 nM.

Work on QLVWMACHSAA yielded an IC50 (HLA-A*68:02 [1]) of 21500 nM, an IC50 (HLA-A*02:02 [23]) of 2740 nM and an IC50 (HLA-A*02:03 [3]) of 354 nM.

RTMAWTVVNSI was tested, and the IC50 (HLA-A*02:06 [18]) was 4510 nM, the IC50 (HLA-A*68:02 [1]) was 1520 nM and the IC50 (HLA-A*02:03 [3]) was 70 nM. The IC50 (HLA-A*02:02 [4]) was 126 nM.

FEDLRVSSF gave an IC50 (HLA-B*40:01 [10]) of 13000 nM, an IC50 (HLA-B*44:03 [12]) of 8990 nM and an IC50 (HLA-B*40:02 [28]) of 1320 nM. The IC50 (HLA-B*18:01 [30]) was 59 nM and the IC50 (HLA-B*44:02 [27]) was 396 nM.

GLIYNRMGA showed an IC50 (HLA-A*02:06 [18]) of 25600 nM, an IC50 (HLA-A*02:02 [23]) of 6560 nM and an IC50 (HLA-A*02:03 [3]) of 273 nM.

With FESKSMKL the IC50 (HLA-B*40:01 [10]) was 1230 nM, the IC50 (HLA-B*45:01 [29]) was 53700 nM and the IC50 (HLA-B*18:01 [11]) was 2500 nM. The IC50 (HLA-B*44:03 [12]) was 66400 nM, the IC50 (HLA-B*44:02 [13]) was 23600 nM and the IC50 (HLA-B*40:02 [15]) was 212 nM.

With RMVLSAFDER the IC50 (HLA-A*03:01 [39]) was 5840 nM, the IC50 (HLA-A*11:01 [40]) was 2240 nM and the IC50 (HLA-A*31:01 [5]) was 336 nM. It also gave an IC50 (HLA-A*68:01 [7]) of 631 nM and an IC50 (HLA-A*33:01 [9]) of 897 nM.
